Results taken from the nanobody polyreactivity screen of Harvey et al. (2022).

Assay: yeast display, Sf9 membrane polyspecificity reagent, FACS + sequencing; frameworks hold sequencing errors
In short: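 Sorting gates, low and high (top ~1%), were placed on anti-HA fluorescence to track expression and on streptavidin fluorescence to track reagent binding. A clone's polyreactivity label is taken from the gate it came out of. The reagent was 10% biotinylated, detergent-solubilized Sf9 membrane, applied for 1 hour at 4 °C to galactose-induced yeast display cells.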

Sequence | polyreactivity (PSR sort gate)
QVQLVETGGGLVQAGGSLRLSCAASGSIFGFYAMGWYRQAPGKERELVAAIDSGDSTNYADSVKGRFTISRDNAKNTVYLQMNSLKPEDTAVYYCYAEAWWYFWFDYWGQGTQVTVSS | low polyreactivity
QVQLVETGGGLVQAGGSLRLSCAASGSIFIWYAMGWYRQAPGKERELVAAIRSGGSTYYADSVKGRFTISRDNAKNTVYFQMNRLKPEDTAVYYCAKVLSWRGNRYNYWGQGTQVTVSS | low polyreactivity
QVQLVETGGGLVQAGGSLRLSCAASGSIFYPNAMGWYRQAPGKERELVAAISSSGGTNYADSVKGRFTISRDNAKNTVYLQMNSLKPEDTAVYYCNARDKVRYRYSRMDYWGQGTQVTVSS | low polyreactivity
QVQLVETGGGLVQAGGSLRLSCAASGSTFHGYAMGWYRQEPGKERELVAAITSGDSTNYADSVKGRFTISRDNAKNTVYLQMNSLKPEDTAVYYCNAEGSSVLTGYWGYPPYWDTYDYWGQGTQVTVSS | low polyreactivity
QVQLVETGGGLVQAGGSLRLSCAASGSTFQLYAMGWYRQAPGKERDFVAAISNGGRTNYADSVKGRFTISRDNAKNTVYLQMTSLKPEDTAVYYCNADQVWWSFDRVLVGYEYWGKGTQVTVSS | low polyreactivity
QVQLVETGGGLVQAGGSLRLSCAASGSTFYAYVMGWYRQAPGKERELVAAITSAGSTYYADSVKGRFTISLDNAKNTVYLQMNSLKPEDTAVYYCAADAYTESAYYKYDYWGQGTQVTVSS | low polyreactivity
QVQLVETGGGLVQAGGSLRLSCAASGSTFYHNAMGWYRQAPGKERELVAAISIGGGRTYYADSVKGRFTISRDNAKNTVYLQMNSLKPEDTAVYYCAAGSPAVYGRGFNYWGQGTQVTVSS | low polyreactivity
QVQLVETGGGLVQAGGSLRLSCAASGSTFYRNTKGCYRQAPGKEREFVAGISDRGTSTYYADSVKGRFTISRDNAKNTVYLQMNSLKPEDTAVYYCNKRSWPAYVHKYDYWGQGTQVTVSS | low polyreactivity
QVQLVETGGGLVQAGGSLRLSCAASGSTVRFNAMGWYRQAPGKERELVAVIRWRGGTTYYADSVKGRFTISRDNAKNTVYLQMNSLKPVDTAVYYCNADYWFSYTWHGSYTVGYWGQGTQVTVSS | high polyreactivity
QVQLVETGGGLVQAGGSLRLSCAASGYILINAMGLYRQAPGKERELVASISWSSGSTYYADSVKGRFTISRDNAKNTVFLQMNSLKPEDTAVYYCAATAWDRWSYRYEYWGQGTQVTVSS | low polyreactivity
QVQLVETGGGLVQAGGSLRLSCAAYGRIFAIYAMGWYRQAPGKDRELVAAISRSGGSTSYADSVKGRFTISRDNAKNTVYLQMNSLKPEDTAVYYCARRITYYQLSRQRYDYWGQGTQVTVSS | high polyreactivity
QVQLVETGGGLVQAGGSLRLSCADSGRIFRYYVMGWYRQAPGKERELVAAISRSGGSTYYADSVKGRFTISRDNAKNTVYLQMNSLKPEETAVYYCAKRVSTYGFSGYDYWGQGTQVTVSS | high polyreactivity
QVQLVETGGGLVQAGGSLRLSCAPSGIIISHYAKGWYRQAPGKETELVAAISSRGGSTYYADSVKGRFTISRDIAKNTVYLQMNSLKPEDTAVYYCATTDPYDSSYYIYYYWGQGTQVTVSS | high polyreactivity
QVQLVETGGGLVQAGGSLRLSCAPSGINFTGYDMGWYRQAPGKERELVAAITSGGSTYYADSVKGRFTISRDNAKNTVYLQMNSLKPEDTAVYYCAARAKLTGYWGQGTQVTVSS | high polyreactivity
QVQLVETGGGLVQAGGSLRLSCDASGRIFGGYAMGWYRKAPGKERELVAAISASGGRTYYADSVKGRFTISRDNAKNTVYLQMNSLKPEDNAVYYCAASFRRTSLRWLGEYWGQGTQVTVSS | high polyreactivity
QVQLVETGGGLVQAGGSLRLSSAASGFTFGTYAMGWYRQAPGKERELVAAITGSGVRTYYADSVKGRFTISRDIAKYTVFLQMNSLKPEDTAVYYCAADYVVPLAFWTFRFDYWGQGTQVTVSS | low polyreactivity
QVQLVETGGGLVQAGGSLSLSCAASGSTSSRYAMGWYRQAPGKEMELVARINWNGGSTYYADSVKGRFTISRDNAKNTVYLQMNSLKPEDTAVYYCAADSFGITYVSYVSIYDFDYWGQGTQLTVSS | low polyreactivity
QVQLVETGGGLVQAGGTLRLSCAASGRIFRRYAMVWYRQAPGKEREFVAAITDGSTYYADSVKGRFTISRDNAKNTVYLQMNSLNPEDPAVYYCATQFGWSYSRRFYYWGQGTQVTVSS | high polyreactivity
QVQLVETGGGLVQAGRSLRLSCAASGSNFRSYARGWYRQAPGKERELVAAITSSSGSTDYADSVKGRFTSSRDNAKNTVYLQMNSLKPEDTAVYYCNAPYWKSRFRAYYHWGQGTQVTVSS | high polyreactivity
QVQLVETGGGLVQAGVSHRLSFASSGSTFVEYVMGWYRQAPGKERELVARITWGGGITYYADSVKVRFTFSRDNAKNTVYLLMNRVNPEDNAVYYCAAGTITYGYGYDYWGQGTQVSVSS | low polyreactivity
QVQLVETGGGLVQAGVSLRISCAASGRTFSVYTMGWYRQAPGKERELVAAIRGRGGSTYYADSVKGRFTISRDNAKNTVYLQMNSLKPEDTAVYYCAARASIFGATFDYWGQGTQVTVSS | high polyreactivity
QVQLVETGGGLVQAGVSLRLSCAASGRIFEVNVMGWYRQAPGKERELVAAITTGGGSTYYADSVKGRFTISRDNAKNTVYLQMNSLKPEDTAVYYCATDYSSYLYDYYTGVGGYDYWGQGTQVTVSS | low polyreactivity
QVQLVETGGGLVQARGSLRLSCAASGRTLPDNAMGWSRQAPGNESELVAAITTSGGSTYYADSVMGRFTISRDNAQNTVYLQLNSLKPEDTAVYYCAADIWQYSLIANYHPYDYWGQGTQVTVSS | low polyreactivity
QVQLVETGGVLVQAGGSLRLSCAASGITFYRYAMGWYRQAPGKERELVATITSGVSTFYADSVKGRFTISRDNAKNTVYLQMKSLKQEDTAVYFCAAESVWNWYYTTAGMDYWGLGTQVTVSS | high polyreactivity
QVQLVETGRGLLQAGGTLLLTCAASGSIYTYAMGWYKQAHGTQRELVAAISRSGGRTYYADSVKGRFTNSRDNAKNTVYLQMNSLKPEDTAVYYCAALLLKDYDYLGQGTQVTVSS | low polyreactivity
QVQLVEYGAALVKAGGSLRLSCAPSGSIFDFYVMGWYRQAPGKERELVAAISSGGSTYYADSVKGRFTISRDNAKNTVYLQMNSLKPEDSAVYYCAAYPEYVSGAWYDYWGLGTQVTVSS | low polyreactivity
QVQLVGSGGGLVQAGGSLRLSCAASGRIFSSSAMGWYRQAPGKERELVASIDWSDGSTYYADSVKGRFTISRDNAKNTVYLQRNSLKPEDTAVYYCAADFVPYLIYGYWGQGTQVTVSS | low polyreactivity
QVQLVKSGGGLVQAGGSLRLICAASGSIFGYNTMGWYRQAPGKERELVATITYRGGSTYYADSVKGRFTISRDNAKNTVYLQMNSLKPEDTAVYYCARRVTRYPYTTWVSAGDYWGQGTQVTVSS | high polyreactivity
QVQLVKSGGGLVQAGGSLRLSCAASGRIFVGYVMGWYRQAPGKERELVAAIDSGGRTNYADSVKGRFTISRDNAKNTVYLQMNSLKPEDTAVYYCNREAAHGSLRWTEMEYWGQGTQVTVSS | low polyreactivity
QVQLVQSAVGLVQAGGSLRLICAASGITFLDNAMGWYRQAPGTERELVAAITSDGNPYYADCVKGRFTISRDNAKNTVYLQMNSLKPEDTAVYYCAVEVSDYYTYVSYDYCGQGTQVTVSS | low polyreactivity
